Measurements from the supplement of paper PMC5998384.

Experiments:
HeLa Kyoto [1] = experiment: melting temperature (median over replicates), in situ; higher = more thermally stable
HeLa Kyoto [2] = experiment: solubility in G1/S (NP-40 vs SDS abundance) (log2 ratio); higher = more soluble; settings: cell cycle stage: G1/S
HeLa Kyoto [3] = experiment: thermal stability score vs G1/S (z-score of summed log2 fold changes over temperatures); higher = more thermally stable than in G1/S
HeLa Kyoto [4] = experiment: solubility change mitosis vs G1/S (difference of NP-40 vs SDS log2 ratios) (log2 ratio difference); higher = more soluble in mitosis
[5] = cell cycle stage: early G1 (4.5 h after nocodazole release)
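Wherever melting temperature (median over replicates), in situ is given: HeLa Kyoto cells synchronized by double thymidine or nocodazole block, proteins quantified by TMT10plex mass spectrometry, three independent biological replicates.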
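Wherever solubility change mitosis vs G1/S (difference of NP-40 vs SDS log2 ratios) is given: synchronized HeLa Kyoto cells (double thymidine block for G1/S, nocodazole release for mitosis), protein amounts in NP-40 versus SDS lysates quantified by mass spectrometry, three biological replicates.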
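Wherever solubility in G1/S (NP-40 vs SDS abundance) is given: HeLa Kyoto cells arrested at G1/S by double thymidine block, proteins quantified by TMT10plex mass spectrometry in mild NP-40 versus SDS extracts, three biological replicates.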
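Wherever thermal stability score vs G1/S (z-score of summed log2 fold changes over temperatures) is given: synchronized HeLa Kyoto cells, proteins quantified by TMT10plex mass spectrometry, three biological replicates, mitosis taken 0.5 h after nocodazole release, G1/S directly after double thymidine block.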

| Sequence | melting temperature (HeLa Kyoto [1]; cell cycle stage: G1/S) [°C] | melting temperature (HeLa Kyoto [1]; cell cycle stage: mitosis) [°C] | solubility in G1/S (log2) (HeLa Kyoto [2]) | thermal stability score (HeLa Kyoto [3]; [5]) | thermal stability score (HeLa Kyoto [3]; cell cycle stage: mitosis) | solubility change mitosis (log2) (HeLa Kyoto [4]) |
| --- | --- | --- | --- | --- | --- | --- |
| MFEEPEWAEAAPVAAGLGPVISRPPPAASSQNKGSKRRQLLATLRALEAASLSQHPPSLCISDSEEEEEERKKKCPKKASFASASAEVGKKGKKKCQKQGPPCSDSEEEVERKKKCHKQALVGSDSAEDEKRKRKCQKHAPINSAQHLDNVDQTGPKAWKGSTTNDPPKQSPGSTSPKPPHTLSRKQWRNRQKNKRRCKNKFQPPQVPDQAPAEAPTEKTEVSPVPRTDSHEARAGALRARMAQRLDGARFRYLNEQLYSGPSSAAQRLFQEDPEAFLLYHRGFQSQVKKWPLQPVDRIARDLRQRPASLVVADFGCGDCRLASSIRNPVHCFDLASLDPRVTVCDMAQVPLEDESVDVAVFCLSLMGTNIRDFLEEANRVLKPGGLLKVAEVSSRFEDVRTFLRAVTKLGFKIVSKDLTNSHFFLFDFQKTGPPLVGPKAQLSGLQLQPCLYKRR [RRP8] | 49.1 | 51.7 | -1.46 | 1.48 | 2.48 | 0.852 |
| MSLNPPIFLKRSEENSSKFVETKQSQTTSIASEDPLQNLCLASQEVLQKAQQSGRSKCLKCGGSRMFYCYTCYVPVENVPIEQIPLVKLPLKIDIIKHPNETDGKSTAIHAKLLAPEFVNIYTYPCIPEYEEKDHEVALIFPGPQSISIKDISFHLQKRIQNNVRGKNDDPDKPSFKRKRTEEQEFCDLNDSKCKGTTLKKIIFIDSTWNQTNKIFTDERLQGLLQVELKTRKTCFWRHQKGKPDTFLSTIEAIYYFLVDYHTDILKEKYRGQYDNLLFFYSFMYQLIKNAKCSGDKETGKLTH [DTWD1] | 50.9 | 50.6 | 0.19 | 1.51 | 1.96 | -0.213 |
| MESEDLSGRELTIDSIMNKVRDIKNKFKNEDLTDELSLNKISADTTDNSGTVNQIMMMANNPEDWLSLLLKLEKNSVPLSDALLNKLIGRYSQAIEALPPDKYGQNESFARIQVRFAELKAIQEPDDARDYFQMARANCKKFAFVHISFAQFELSQGNVKKSKQLLQKAVERGAVPLEMLEIALRNLNLQKKQLLSEEEKKNLSASTVLTAQESFSGSLGHLQNRNNSCDSRGQTTKARFLYGENMPPQDAEIGYRNSLRQTNKTKQSCPFGRVPVNLLNSPDCDVKTDDSVVPCFMKRQTSRSECRDLVVPGSKPSGNDSCELRNLKSVQNSHFKEPLVSDEKSSELIITDSITLKNKTESSLLAKLEETKEYQEPEVPESNQKQWQSKRKSECINQNPAASSNHWQIPELARKVNTEQKHTTFEQPVFSVSKQSPPISTSKWFDPKSICKTPSSNTLDDYMSCFRTPVVKNDFPPACQLSTPYGQPACFQQQQHQILATPLQNLQVLASSSANECISVKGRIYSILKQIGSGGSSKVFQVLNEKKQIYAIKYVNLEEADNQTLDSYRNEIAYLNKLQQHSDKIIRLYDYEITDQYIYMVMECGNIDLNSWLKKKKSIDPWERKSYWKNMLEAVHTIHQHGIVHSDLKPANFLIVDGMLKLIDFGIANQMQPDTTSVVKDSQVGTVNYMPPEAIKDMSSSRENGKSKSKISPKSDVWSLGCILYYMTYGKTPFQQIINQISKLHAIIDPNHEIEFPDIPEKDLQDVLKCCLKRDPKQRISIPELLAHPYVQIQTHPVNQMAKGTTEEMKYVLGQLVGLNSPNSILKAAKTLYEHYSGGESHNSSSSKTFEKKRGKK | 46.8 | 48.1 | 0.176 | 0.873 | 3.46 | 0.0511 |
| MAQLGKLLKEQKYDRQLRLWGDHGQEALESAHVCLINATATGTEILKNLVLPGIGSFTIIDGNQVSGEDAGNNFFLQRSSIGKNRAEAAMEFLQELNSDVSGSFVEESPENLLDNDPSFFCRFTVVVATQLPESTSLRLADVLWNSQIPLLICRTYGLVGYMRIIIKEHPVIESHPDNALEDLRLDKPFPELREHFQSYDLDHMEKKDHSHTPWIVIIAKYLAQWYSETNGRIPKTYKEKEDFRDLIRQGILKNENGAPEDEENFEEAIKNVNTALNTTQIPSSIEDIFNDDRCINITKQTPSFWILARALKEFVAKEGQGNLPVRGTIPDMIADSGKYIKLQNVYREKAKKDAAAVGNHVAKLLQSIGQAPESISEKELKLLCSNSAFLRVVRCRSLAEEYGLDTINKDEIISSMDNPDNEIVLYLMLRAVDRFHKQQGRYPGVSNYQVEEDIGKLKSCLTGFLQEYGLSVMVKDDYVHEFCRYGAAEPHTIAAFLGGAAAQEVIKIITKQFVIFNNTYIYSGMSQTSATFQL [NAE1] | 51.5 | 51.3 | 0.0839 | 0.0621 | 0.146 | -0.191 |
| MLRAGWLRGAAALALLLAARVVAAFEPITVGLAIGAASAITGYLSYNDIYCRFAECCREERPLNASALKLDLEEKLFGQHLATEVIFKALTGFRNNKNPKKPLTLSLHGWAGTGKNFVSQIVAENLHPKGLKSNFVHLFVSTLHFPHEQKIKLYQDQLQKWIRGNVSACANSVFIFDEMDKLHPGIIDAIKPFLDYYEQVDGVSYRKAIFIFLSNAGGDLITKTALDFWRAGRKREDIQLKDLEPVLSVGVFNNKHSGLWHSGLIDKNLIDYFIPFLPLEYRHVKMCVRAEMRARGSAIDEDIVTRVAEEMTFFPRDEKIYSDKGCKTVQSRLDFH [TOR1B] | 53.7 | 53.9 | 0.349 | 2.27 | 5.78 | -0.143 |
| MAAPPGEYFSVGSQVSCRTCQEQRLQGEVVAFDYQSKMLALKCPSSSGKPNHADILLINLQYVSEVEIINDRTETPPPLASLNVSKLASKARTEKEEKLSQAYAISAGVSLEGQQLFQTIHKTIKDCKWQEKNIVVMEEVVITPPYQVENCKGKEGSALSHVRKIVEKHFRDVESQKILQRSQAQQPQKEAALSS [LSM12] | 52.3 | 52.3 | -0.264 | -0.688 | -0.784 | 0.105 |
| MEDHQHVPIDIQTSKLLDWLVDRRHCSLKWQSLVLTIREKINAAIQDMPESEEIAQLLSGSYIHYFHCLRILDLLKGTEASTKNIFGRYSSQRMKDWQEIIALYEKDNTYLVELSSLLVRNVNYEIPSLKKQIAKCQQLQQEYSRKEEECQAGAAEMREQFYHSCKQYGITGENVRGELLALVKDLPSQLAEIGAAAQQSLGEAIDVYQASVGFVCESPTEQVLPMLRFVQKRGNSTVYEWRTGTEPSVVERPHLEELPEQVAEDAIDWGDFGVEAVSEGTDSGISAEAAGIDWGIFPESDSKDPGGDGIDWGDDAVALQITVLEAGTQAPEGVARGPDALTLLEYTETRNQFLDELMELEIFLAQRAVELSEEADVLSVSQFQLAPAILQGQTKEKMVTMVSVLEDLIGKLTSLQLQHLFMILASPRYVDRVTEFLQQKLKQSQLLALKKELMVQKQQEALEEQAALEPKLDLLLEKTKELQKLIEADISKRYSGRPVNLMGTSL [CDK5RAP3] | 49.5 | 49.4 | 0.203 | 1.2 | 2.62 | -0.0399 |
| MAAVKDSCGKGEMATGNGRRLHLGIPEAVFVEDVDSFMKQPGNETADTVLKKLDEQYQKYKFMELNLAQKKRRLKGQIPEIKQTLEILKYMQKKKESTNSMETRFLLADNLYCKASVPPTDKVCLWLGANVMLEYDIDEAQALLEKNLSTATKNLDSLEEDLDFLRDQFTTTEVNMARVYNWDVKRRNKDDSTKNKA [VBP1] | 53.1 | 53.4 | 0.453 | -3.96 | -5.3 | 0.513 |
| MEAPLQTGMMGTSSHGLATNSSGAKVAERDGFQDVLAPGEGSAGRICGAQPVPFVPQVLGVMIGAGVAVVVTAVLILLVVRRLRVPKTPAPDGPRYRFRKRDKVLFYGRKIMRKVSQSTSSLVDTSVSATSRPRMRKKLKMLNIAKKILRIQKETPTLQRKEPPPAVLEADLTEGDLANSHLPSEVLYMLKNVRVLGHFEKPLFLELCRHMVFQRLGQGDYVFRPGQPDASIYVVQDGLLELCLPGPDGKECVVKEVVPGDSVNSLLSILDVITGHQHPQRTVSARAARDSTVLRLPVEAFSAVFTKYPESLVRVVQIIMVRLQRVTFLALHNYLGLTNELFSHEIQPLRLFPSPGLPTRTSPVRGSKRMVSTSATDEPRETPGRPPDPTGAPLPGPTGDPVKPTSLETPSAPLLSRCVSMPGDISGLQGGPRSDFDMAYERGRISVSLQEEASGGSLAAPARTPTQEPREQPAGACEYSYCEDESATGGCPFGPYQGRQTSSIFEAAKQELAKLMRIEDPSLLNSRVLLHHAKAGTIIARQGDQDVSLHFVLWGCLHVYQRMIDKAEDVCLFVAQPGELVGQLAVLTGEPLIFTLRAQRDCTFLRISKSDFYEIMRAQPSVVLSAAHTVAARMSPFVRQMDFAIDWTAVEAGRALYRQGDRSDCTYIVLNGRLRSVIQRGSGKKELVGEYGRGDLIGVVEALTRQPRATTVHAVRDTELAKLPEGTLGHIKRRYPQVVTRLIHLLSQKILGNLQQLQGPFPAGSGLGVPPHSELTNPASNLATVAILPVCAEVPMVAFTLELQHALQAIGPTLLLNSDIIRARLGASALDSIQEFRLSGWLAQQEDAHRIVLYQTDASLTPWTVRCLRQADCILIVGLGDQEPTLGQLEQMLENTAVRALKQLVLLHREEGAGPTRTVEWLNMRSWCSGHLHLRCPRRLFSRRSPAKLHELYEKVFSRRADRHSDFSRLARVLTGNTIALVLGGGGARGCSHIGVLKALEEAGVPVDLVGGTSIGSFIGALYAEERSASRTKQRAREWAKSMTSVLEPVLDLTYPVTSMFTGSAFNRSIHRVFQDKQIEDLWLPYFNVTTDITASAMRVHKDGSLWRYVRASMTLSGYLPPLCDPKDGHLLMDGGYINNLPADIARSMGAKTVIAIDVGSQDETDLSTYGDSLSGWWLLWKRLNPWADKVKVPDMAEIQSRLAYVSCVRQLEVVKSSSYCEYLRPPIDCFKTMDFGKFDQIYDVGYQYGKAVFGGWSRGNVIEKMLTDRRSTDLNESRRADVLAFPSSGFTDLAEIVSRIEPPTSYVSDGCADGEESDCLTEYEEDAGPDCSRDEGGSPEGASPSTASEMEEEKSILRQRRCLPQEPPGSATDA [PNPLA6] | 51.4 | 50.8 | -0.179 | -0.313 | -1.07 | -0.0785 |
| MPAPIRLRELIRTIRTARTQAEEREMIQKECAAIRSSFREEDNTYRCRNVAKLLYMHMLGYPAHFGQLECLKLIASQKFTDKRIGYLGAMLLLDERQDVHLLMTNCIKNDLNHSTQFVQGLALCTLGCMGSSEMCRDLAGEVEKLLKTSNSYLRKKAALCAVHVIRKVPELMEMFLPATKNLLNEKNHGVLHTSVVLLTEMCERSPDMLAHFRKLVPQLVRILKNLIMSGYSPEHDVSGISDPFLQVRILRLLRILGRNDDDSSEAMNDILAQVATNTETSKNVGNAILYETVLTIMDIKSESGLRVLAINILGRFLLNNDKNIRYVALTSLLKTVQTDHNAVQRHRSTIVDCLKDLDVSIKRRAMELSFALVNGNNIRGMMKELLYFLDSCEPEFKADCASGIFLAAEKYAPSKRWHIDTIMRVLTTAGSYVRDDAVPNLIQLITNSVEMHAYTVQRLYKAILGDYSQQPLVQVAAWCIGEYGDLLVSGQCEEEEPIQVTEDEVLDILESVLISNMSTSVTRGYALTAIMKLSTRFTCTVNRIKKVVSIYGSSIDVELQQRAVEYNALFKKYDHMRSALLERMPVMEKVTTNGPTEIVQTNGETEPAPLETKPPPSGPQPTSQANDLLDLLGGNDITPVIPTAPTSKPSSAGGELLDLLGDINLTGAPAAAPAPASVPQISQPPFLLDGLSSQPLFNDIAAGIPSITAYSKNGLKIEFTFERSNTNPSVTVITIQASNSTELDMTDFVFQAAVPKTFQLQLLSPSSSIVPAFNTGTITQVIKVLNPQKQQLRMRIKLTYNHKGSAMQDLAEVNNFPPQSWQ [AP1G1] | 50.3 | 50.1 | -0.225 | -1.48 | 0.274 | -0.192 |
| MNHSERFVFIAEWYDPNASLLRRYELLFYPGDGSVEMHDVKNHRTFLKRTKYDNLHLEDLFIGNKVNVFSRQLVLIDYGDQYTARQLGSRKEKTLALIKPDAISKAGEIIEIINKAGFTITKLKMMMLSRKEALDFHVDHQSRPFFNELIQFITTGPIIAMEILRDDAICEWKRLLGPANSGVARTDASESIRALFGTDGIRNAAHGPDSFASAAREMELFFPSSGGCGPANTAKFTNCTCCIVKPHAVSEGLLGKILMAIRDAGFEISAMQMFNMDRVNVEEFYEVYKGVVTEYHDMVTEMYSGPCVAMEIQQNNATKTFREFCGPADPEIARHLRPGTLRAIFGKTKIQNAVHCTDLPEDGLLEVQYFFKILDN [NME7] | 48.9 | 48.8 | -0.32 | 0.587 | 0.668 | 0.0736 |
